Where “and” joins values, the source holds several entries; their conditions need not be identical. Equal values may be shown once.
How the values were obtained:
[1] = target: T1, human CCR8 (human, UniProt P51685 1-355); assay: cell-based or functional assay
[2] = target: T1, human CCR8; assay: cell-based or functional assay; remark: listed apart in the source
[3] = target: T1, human CCR8; assay: cell-based or functional assay; remark: listed apart in the source
[4] = target: T1, human CCR8; assay: flow cytometry, hCCR8 transfected CHOK1 cells
Protocol: The same staining protocol was applied on human CCR8 transfected CHO cell line versus wild type CHO cell line, cutaneous T cell lymphoma HUT78 cell line and human activated T cell model.
Briefly, 1·10⁵ cells per well in a 96 well plate were incubated with a dilution of unconjugated anti-CCR8 mAb at 10 μg/mL then diluted at 1/3.33, 4 dilution points (during 30 min at 4° C.). In human activated T cells model, prior to mAb incubation, cells were first incubated with 200 nM of hCCL1 (R&D Systems, Minneapolis, MN, USA) or buffer PBS (Invitrogen by Thermofisher Scientific, Illkirch-Graffenstaden, France) supplemented by 2% Fetal Bovine Serum (Invitrogen by Thermofisher Scientific, Illkirch-Graffenstaden, France) and 2 mM EDTA (Invitrogen by Thermofisher Scientific, Illkirch-Graffenstaden, France) during 1 hour at 4° C. To determine EC50 value, 8 concentrations of anti-CCR8 mAb were tested. Unbound antibodies were washed away with PBS (Invitrogen by Thermofisher Scientific, Illkirch-Graffenstaden, France) supplemented by 2% Fetal Bovine Serum (Invitrogen by Thermofisher Scientific, Illkirch-Graffenstaden, France) and 2 mM EDTA (Invitrogen by Thermofisher Scientific, Illkirch-Graffenstaden, France). Subsequently, cells are centrifuged (5 min at 400 g) and bound antibody is detected with F(ab′)₂-Goat anti-Mouse IgG (H+L) Cross-Adsorbed Secondary Antibody, Alexa Fluor 488 (dilution 1/500) (Invitrogen by Thermofisher Scientific, Illkirch-Graffenstaden, France) or with F(ab′)₂-Goat anti-Human IgG Fc Secondary Antibody, PE (Invitrogen by Thermofisher Scientific, Illkirch-Graffenstaden, France) (dilution 1/1000) at 4° C. for 30 min. Detection reagent is washed away and cells are centrifuged (5 min at 400 g) and resuspended in 30 μL PBS. Bound detection antibody is quantified on a MacsQuant16 (Miltenyi, Gladbach, Germany) (B1 or B2 channel, 5000 events per acquisition). During the experiment, the respective isotype mAb controls (mouse IgG1, mouse IgG2a, mouse IgG2b, mouse IgG3 or human IgG1) (Biolegend, Amsterdam, The Netherlands) are included to exclude any unspecific binding events.

[5] = target: pm5, modified CCR8 related peptide (human, sulfated tyrosines at Y15 and Y17); assay: ELISA on coated CCR8 peptide (500 ng/mL), OD [cont.]
Protocol: (§1) The specific binding properties of antibodies were evaluated by ELISA with coated CCR8 related peptides (500 ng/mL) in carbonate/bicarbonate buffer. Different peptides were used as described in Table 1 (see Example 1). Each anti-CCR8 mAb was tested at 1 μg/mL then diluted at 1/10. After an incubation at room temperature during 90 min, unbound mAbs were removed by washings. […] After washings, 3,3′,5,5′-tetramethylbenzidine (TMB) (Interchim, Montlugon, France) was added for 15 min. Then the optical density (OD) was determined by using a multiplate reader (Tecan, Lyon, France) and correlated with mAb reactivity on the panel of coated peptides.

[6] = target: pm6, modified CCR8 related peptide (human, sulfated tyrosines at Y16 and Y17); assay: as above
Protocol: as §1

[7] = target: pm8, modified CCR8 related peptide (human, sulfated tyrosines at Y15, Y16 and Y17); assay: as above
Protocol: as §1

[8] = target: T2, pwt1, unmodified CCR8 related peptide (human, none (non-sulfated Y15, Y16, Y17)); assay: as above
T2 construct: First 34 amino acids of human CCR8, synthetic; also called unmodified peptide
Protocol: as §1

[9] = target: pm1, modified CCR8 related peptide (human, sulfated tyrosine at Y15); assay: as above
Protocol: as §1

[10] = target: pm2, modified CCR8 related peptide (human, sulfated tyrosine at Y16); assay: as above
Protocol: as §1

[11] = target: pm3, modified CCR8 related peptide (human, sulfated tyrosine at Y17); assay: as above
Protocol: as §1

[12] = target: pm4, modified CCR8 related peptide (human, sulfated tyrosines at Y15 and Y16); assay: as above
Protocol: as §1

[13] = target: T1, human CCR8; assay: flow cytometry, inhibition of hCCL1-AF647 binding to hCCR8 CHO cells
Protocol: The hCCR8 transfected CHO cell line was dispatched at a density of 1·10⁵ per well in a 96-well plate. Cells were incubated for 30 min at 4° C. with or without anti-CCR8 mAb tested at 10 μg/mL then diluted at 1/3. Unbound antibodies were washed away with PBS (Gibco, Villebon-sur-Yvette, France) supplemented by 2% Fetal Bovine Serum (Invitrogen by Thermofisher Scientific, Illkirch-Graffenstaden, France) and 2 mM EDTA. […] After washing unbound ligands, CCL1 bound detection is quantified on a MacsQuant16 (Miltenyi, Gladbach, Germany) (R1 channel, 5 000 events per acquisition).
For IC₅₀ determination, a concentration response curve is performed using 8 concentrations of mAb. Curves are fitted and IC₅₀ of CCL1 binding blocking activity is calculated using the sigmoidal dose-response (variable slope) model on GraphPad Prism 9 (GraphPad Software, San Diego, CA, USA).

[14] = target: hCCR8 SNAP-tag (human, UniProt P51685 1-355, SNAP-tag labelled with Lumi4-Terbium); assay: cell-based or functional assay

Sequence of pm8, modified CCR8 related peptide (human, sulfated tyrosines at Y15, Y16 and Y17) (peptide, as listed by the source): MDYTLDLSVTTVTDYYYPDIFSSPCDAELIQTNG
Sequence of pm4, modified CCR8 related peptide (human, sulfated tyrosines at Y15 and Y16) (peptide, as listed by the source): as above
T2 sequence (peptide, as listed by the source): as above
Sequence of pm1, modified CCR8 related peptide (human, sulfated tyrosine at Y15) (peptide, as listed by the source): as above
Sequence of pm6, modified CCR8 related peptide (human, sulfated tyrosines at Y16 and Y17) (peptide, as listed by the source): as above
Sequence of pm2, modified CCR8 related peptide (human, sulfated tyrosine at Y16) (peptide, as listed by the source): as above
Sequence of pm3, modified CCR8 related peptide (human, sulfated tyrosine at Y17) (peptide, as listed by the source): as above
Sequence of pm5, modified CCR8 related peptide (human, sulfated tyrosines at Y15 and Y17) (peptide, as listed by the source): as above

B1: anti-CCR8 mAb 2-3 (antibody, V domains shown)
VH: EVQLQQSGPELLKPGTSVKISCTTSGYTFSDYTLHWVKQSHGKSLEWIGGITPKNGDTRYDPRFKDKATLTIDKSSSAAYMELRSLTSEDSAVYYCARVARFYGVSPYAMDYWGQGASVTVSS
VL: DVVMTQTPLSLPVSLGDQASISCRCTQSLLHSNGDTYLHWYLQKPGQSPKLLIYKVSNRFSGVPDRFSGSGSGTDFTLEITRVEAEDLGVYFCSQTTHVPYTFGGGTKLEIK
[1]
  IC50, CCL1 induced hCCR8 Gi2 signaling (BRET, HEK-293): 0.049 µg/mL and 0.328 nM
[2]
  hCCL1 (100 nM) residual response in %, Protocol #2, mAb 0.08 µg/mL (0.53 nM): 79%
  hCCL1 (100 nM) residual response in %, Protocol #2, mAb 0.4 µg/mL (2.67 nM): 38%
  hCCL1 (100 nM) residual response in %, Protocol #2, mAb 10 µg/mL (66.7 nM): 17%
  hCCL1 (100 nM) residual response in %, Protocol #3, mAb 0.05 µg/mL (0.33 nM): 102%
  hCCL1 (100 nM) residual response in %, Protocol #3, mAb 0.5 µg/mL (3.33 nM): 64%
  hCCL1 (100 nM) residual response in %, Protocol #3, mAb 5 µg/mL (33.3 nM): 47%
[3]
  IC50, CCL1 induced hCCR8 Gi2 signaling (BRET) at pH 6.5: 0.044 µg/ml and 0.292 nM
  IC50, CCL1 induced hCCR8 Gi2 signaling (BRET) at pH 7.4: 0.061 µg/ml and 0.405 nM
[4]
  % positive cells: 81.1%
  MFI fold change to isotype ctrl: 10.7 fold
[5]
  binding result: binds
[6]
  binding result: binds
[7]
  binding result: binds
[8]
  binding result: binds
[9]
  binding result: binds
[10]
  binding result: binds
[11]
  binding result: binds
[12]
  binding result: binds
[13]
  IC50: 1.3 µg/mL and 8.71 nM

B2: Ref #3 (Anti-CCR8-1 of US 2021/0238292 A1) (antibody, human IgG1, V domains shown)
VH: QVQLVQSGAEVKKPGASVKVSCKASGYTFTSYYMHWVRQAPGQGLEWMGIINPSGGSTSYAQKFQGRVTMTRDTSTSTVYMELSSLRSEDTAVYYCARAVRNRFRFDYWGQGTLVTVSS
VL: QSALTQPASVSGSPGQSITISCTGTSSDVGSYNLVSWYQQHPGKAPKLMIYEVSKRPSGVSNRFSGSKSGNTASLTISGLQAEDEADYYCSSYAGSSTFVVFGGGTKLTVL
[14]
  % of internalization at 1 µg/ml (CCL1 at 300 nM = 100%), HTRF: 100%
  % of internalization at 10 µg/ml (CCL1 at 300 nM = 100%), HTRF: 90%

B3: Ref #4 (137-H3L2 (LM-108) of WO 2022/078277) (antibody, human IgG1, V domains shown)
VH: EVQLVESGGGLVQPGGSLKLSCAASGFTFNTYAMNWVRQASGKGLEWVARIRSKANNYATYYADSVKDRFTISRDDSKNTLYLQMNNLKTEDTAVYYCVRDRSRGEDYAMDYWGQGTLVTVSS
VL: DIVMTQSPLSLPVTPGEPASISCRSSKSLLHSNANTYLYWFLQKPGQSPQLLIYRMSNLASGVPDRFSGSGSGTAFTLKISRVEAEDVGVYYCMQHLEYPFTFGQGTKLEIK
[14]
  % of internalization at 1 µg/ml (CCL1 at 300 nM = 100%), HTRF: 95%
  % of internalization at 10 µg/ml (CCL1 at 300 nM = 100%), HTRF: 103%

— US20260167731A1 (DOMAIN THERAPEUTICS, published 2026)
